Experimental data: patent publication US20220033501A1 (SHANGHAI PHARMAEXPLORER, published 2022)

T1: human TIM-3 on CHOK1 stable cell line (CHOK1-hTIM-3) (human, UniProt Q8TDQ0 22-301)
T1 sequence: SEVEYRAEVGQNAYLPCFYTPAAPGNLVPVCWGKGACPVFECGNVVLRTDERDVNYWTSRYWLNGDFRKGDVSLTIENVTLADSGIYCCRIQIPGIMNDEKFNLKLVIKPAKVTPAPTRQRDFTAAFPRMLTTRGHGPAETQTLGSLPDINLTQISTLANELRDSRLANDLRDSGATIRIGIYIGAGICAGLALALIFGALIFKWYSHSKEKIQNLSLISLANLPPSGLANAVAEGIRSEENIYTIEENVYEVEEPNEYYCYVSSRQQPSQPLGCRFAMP

T2: monkey TIM-3 on CHOK1 stable cell line (CHOK1-cTIM-3) (monkey)
T2 chain: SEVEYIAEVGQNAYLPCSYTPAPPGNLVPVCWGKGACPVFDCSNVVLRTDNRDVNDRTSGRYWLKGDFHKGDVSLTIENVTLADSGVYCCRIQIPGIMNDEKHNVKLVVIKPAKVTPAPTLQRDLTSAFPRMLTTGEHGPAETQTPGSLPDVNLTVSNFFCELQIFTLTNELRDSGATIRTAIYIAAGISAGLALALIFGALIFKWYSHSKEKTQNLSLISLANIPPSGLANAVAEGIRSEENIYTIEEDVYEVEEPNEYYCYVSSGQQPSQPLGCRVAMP

T3: human TIM-3 extracellular domain protein with hFc tag (hTIM-3-hFc) (human, UniProt Q8TDQ0 22-200)
T3 construct: not shown: human IgG Fc fragment (hFc) of the pCpC vector
T3 sequence: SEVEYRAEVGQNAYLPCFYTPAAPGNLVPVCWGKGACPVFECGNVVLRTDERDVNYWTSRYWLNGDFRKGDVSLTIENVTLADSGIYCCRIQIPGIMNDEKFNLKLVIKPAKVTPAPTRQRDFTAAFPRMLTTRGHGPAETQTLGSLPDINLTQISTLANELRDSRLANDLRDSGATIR

T4: murine TIM-3 extracellular domain protein with hFc tag (mTIM-3-hFc) (mouse, UniProt Q8VIM0 29-191)
T4 construct: also called mouse TIM-3 extracellular domain protein; not shown: human IgG Fc fragment (hFc) of the pCpC vector
T4 chain: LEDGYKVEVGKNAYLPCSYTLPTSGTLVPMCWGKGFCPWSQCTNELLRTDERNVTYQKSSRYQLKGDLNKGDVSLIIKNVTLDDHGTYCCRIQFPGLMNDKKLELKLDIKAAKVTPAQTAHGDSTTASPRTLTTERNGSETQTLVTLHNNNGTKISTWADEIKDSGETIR

T5: murine TIM-3 protein with hFc tag (mTIM-3-hFc protein) (mouse; human, UniProt Q8VIM0 29-191)
T5 construct: Made in HEK293 cells; also called mouse TIM-3 extracellular domain protein; not shown: human IgG Fc fragment (hFc) of the pCpC vector
T5 chain: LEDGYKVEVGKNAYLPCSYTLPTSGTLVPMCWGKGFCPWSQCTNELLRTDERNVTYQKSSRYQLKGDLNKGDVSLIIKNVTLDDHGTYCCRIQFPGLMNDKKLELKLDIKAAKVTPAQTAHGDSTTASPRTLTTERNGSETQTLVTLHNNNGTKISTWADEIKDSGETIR

T6: human TIM-3 protein with hFc tag (hTIM-3-hFc protein) (human, UniProt Q8TDQ0 22-200)
T6 construct: also called immunogen 1; human TIM-3 extracellular domain protein; not shown: human IgG Fc fragment (hFc) of the pCpC vector
T6 sequence: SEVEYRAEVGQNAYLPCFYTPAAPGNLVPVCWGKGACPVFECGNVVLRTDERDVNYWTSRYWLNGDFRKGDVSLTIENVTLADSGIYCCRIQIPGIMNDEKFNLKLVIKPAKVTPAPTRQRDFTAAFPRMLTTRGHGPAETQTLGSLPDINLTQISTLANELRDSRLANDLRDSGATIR


Columns and labels:
[1] = molecular target: T1, human TIM-3 on CHOK1 stable cell line …; assay: FACS, CHOK1-hTIM-3 cells, 0.32 nM antibody
[2] = molecular target: T2, monkey TIM-3 on CHOK1 stable cell line …; assay: FACS, CHOK1-cTIM-3 cells, 0.32 nM antibody
[3] = molecular target: T3, human TIM-3 extracellular domain …; assay: ELISA, coated human TIM-3 ECD protein, 0 nM antibody
[4] = molecular target: T4, murine TIM-3 extracellular domain …; assay: ELISA, coated mouse TIM-3 ECD protein, 0.0067 nM antibody
[5] = molecular target: T1, human TIM-3 on CHOK1 stable cell line …; assay: FACS, CHOK1-hTIM-3 cells, 8 nM antibody
[6] = molecular target: T5, murine TIM-3 protein with hFc tag …; assay: ELISA, coated mTIM-3-hFc; antibody 0.0067 nM
Excerpt: (§1) The amino acid sequence 22-200 of the extracellular domain of the human TIM-3 protein described in the step of Example 1 (as shown in SEQ ID NO. 71 in the sequence listing) was cloned into a pCpC vector having a human IgG Fc fragment (hFc), and transfected into HEK293 cells. The cell culture medium was collected, and purified to obtain the human TIM-3 protein with hFc tag (herein referred to as hTIM-3-hFc protein). The amino acid sequence 22-201 of the extracellular domain of the monkey TIM-3 protein (as shown in SEQ ID NO. 72 in the sequence listing) was cloned into a pCpC vector having a human IgG Fc fragment (hFc), and transfected into HEK293 cells. The cell culture medium was collected, and purified to obtain the monkey TIM-3 protein with hFc tag (herein referred to as cTIM-3-hFc protein). […] The cell culture medium was collected, and purified to obtain the murine TIM-3 protein with hFc tag (herein referred to as mTIM-3-hFc protein). Purified human, monkey, and mouse TIM-3 extracellular domain proteins (hTIM-3-hFc, cTIM-3-hFc, and mTIM-3-hFc) were diluted with PBS to a final concentration of 1.0 μg/ml and then added to a 96-well ELISA plate with 100 μl per well. The plate was sealed with plastic film and incubated overnight at 4° C. The plate was washed 4 times with the plate washing solution (PBS+0.01% Tween20) on the next day, and added with the blocking solution (PBS+0.01% Tween20+1% BSA) and sealed at room temperature for 1-2 hours. The blocking solution was poured out. 50-100 μl of the antibody sample to be tested was added to each well. The plate was incubated at 37° C. for 1-2 hours, and washed 2-3 times with plate washing solution (PBS+0. 01% Tween20). HRP (horseradish peroxidase) labeled secondary antibody was added. The plate was incubated at 37° C. for 1-2 hours, and washed 2-3 times with plate washing solution (PBS+0. 01% Tween20). […] of TMB substrate was added to each well. After incubated at room temperature for 15-30 minutes, the plate was added with […] stop solution (1.0N HCl) to each well. An ELISA plate reader (TiterMax 384plus, Molecular Device) was used to read the A450 nm value.

[7] = molecular target: T6, human TIM-3 protein with hFc tag …; assay: ELISA, coated hTIM-3-hFc; antibody 0.0007 nM
Excerpt: as §1

[8] = molecular target: T6, human TIM-3 protein with hFc tag …; assay: ELISA, coated hTIM-3-hFc; antibody 66.667 nM
Excerpt: as §1

[9] = molecular target: T5, murine TIM-3 protein with hFc tag …; assay: ELISA, coated mTIM-3-hFc; antibody 0.0007 nM
Excerpt: as §1

[10] = molecular target: T6, human TIM-3 protein with hFc tag …; assay: ELISA, coated hTIM-3-hFc; antibody 0.0067 nM
Excerpt: as §1

Binder | Mean fluorescence intensity [1] | Mean fluorescence intensity [2] | OD450 [3] | OD450 [4] | Mean fluorescence intensity [5] | OD450 [6] | OD450 [7] | OD450 [8] | OD450 [9] | OD450 [10]
57F4E5 fully human TIM-3 antibody (human IgG4, kappa) (antibody, V domains shown) VH: EVQLVESGGGLVQPGGSLRLSCAASGFTFSSYWMSWVRQAPGKGLEWVANIKQDGSEKYYVDSVKGRFTISRDSAKNSLYLQMNSLRAEDTAMYFCARDSNFFDYWGQGTLVTVSS VL: ETVMTQSPATLSVSPGERATLSCRASQSVSSNLAWYQRKPGQAPRLLIYFSSTRATGIPARFSGSGSGTEFTLTISSLQSEDFAVYYCQQYNNWPLTFGGGTKVEIK | 69.7 | 80.6 | 0.08 | 0.23 | 154 |  |  |  |  | 
134H3G6 fully human TIM-3 antibody (human IgG4, kappa) (antibody, V domains shown) VH: EVQLVESGGGLVQPGGSLRLSCAASGFTFSNSWMTWVRQAPGKGLEWVANIKQAGTEKYYVDSVKGRFTISRDNAKNSLYLQMNSLRAEDTAVYYCNSGSNYFDYWGQGTLVTVSS VL: EIVMTQSPATLSVSPGERATLSCRARQNFYSNLAWYQQKPGQAPRLLIYGASTRATGIPARFSGSGSGTEFTLTISSLQSEDFAVYYCQQYNNWPLTFGGGTKVEIK | 96.6 | 134 | 0.08 | 0.22 | 229 |  |  |  |  | 
34B6D8 (TIM-3 antibody purified from hybridoma, chimeric antibody of Example 2) (antibody, V domains shown, From hybridoma of Harbour H2L2 transgenic mice: human variable regions, rat constant regions) VH: EVQLVESGGGLVQPGGSLRLSCAASGFTFSTYWMTWVRQAPGKRLEWVANIKQGGGDKYYVDSVKGRFTISTDNAKNSLYLQMNSLRAEDTAVYYCARGSNWFDPWGQGTLVTVSS VL: EIVMTQSPATLSMSPGERATLSCRASQSVYDNLAWYQQKPGQAPRLLIYGASTRATGIPARFSGSGSGTEFTLTISSLQSEDFALYYCQQYTHWPITFGQGTRLEIK |  |  |  |  |  | 0.65 | 0.15 | 3.42 | 0.65 | 0.33
39E5H1 (TIM-3 antibody purified from hybridoma, chimeric antibody of Example 2) (antibody, V domains shown, From hybridoma of Harbour H2L2 transgenic mice: human variable regions, rat constant regions) VH: EVQLVESGGGLVQPGGSLRLSCAASGFTFSSYWMSWVRQAPGKGLEWVANIKRGGSERYYVDSVKGRFTISGDNAKNSVYLQMNSLRAEDTAVYYCARGSNWFDPWGQGTLVTVSS VL: ETVMTQSPAILSVSPGERATLSCRASQSVYSNLAWYQQKLGQAPRLLIYDASTRATGIPARFSGSGSGTEFTLTISSLQSEDFAVYYCQQYNNWPITFGQGTRLEIK |  |  |  |  |  | 0.64 | 0.16 | 3.39 | 0.63 | 0.42
134H3G6 (TIM-3 antibody purified from hybridoma, chimeric antibody of Example 2) (antibody, V domains shown, From hybridoma of Harbour H2L2 transgenic mice: human variable regions, rat constant regions) VH: EVQLVESGGGLVQPGGSLRLSCAASGFTFSNSWMTWVRQAPGKGLEWVANIKQAGTEKYYVDSVKGRFTISRDNAKNSLYLQMNSLRAEDTAVYYCNSGSNYFDYWGQGTLVTVSS VL: EIVMTQSPATLSVSPGERATLSCRARQNFYSNLAWYQQKPGQAPRLLIYGASTRATGIPARFSGSGSGTEFTLTISSLQSEDFAVYYCQQYNNWPLTFGGGTKVEIK |  |  |  |  |  | 0.64 | 0.13 | 3.15 | 0.62 | 0.13
7A4F10 (TIM-3 antibody purified from hybridoma, chimeric antibody of Example 2) (antibody, V domains shown, From hybridoma of Harbour H2L2 transgenic mice: human variable regions, rat constant regions) VH: EVQLLESGGGLVQPGGSLRLSCAASGFTFRTHLISWVRQAPGKGLEWVAAITGSGGSTYYADSVKGRFIISRDNSKNTLFLQMNSLRAEDTAVYYCAKDGGSGSYDDFWGQGTLVTVSS VL: ETVLTQSPVTLSLSPGERATLSCRASQSVGSYLAWYQQKPGQAPRLLIYDASNRATGIPARFSGSGSGTDFTLTISSLEPEDFAVYYCQQRSNWPPTFGQGTKVEIK |  |  |  |  |  | 0.64 | 0.12 | 3.08 | 0.64 | 0.13

Next, values leading:

Mean fluorescence intensity [1] | Mean fluorescence intensity [2] | OD450 [3] | OD450 [4] | Mean fluorescence intensity [5] | OD450 [6] | OD450 [7] | OD450 [8] | OD450 [9] | OD450 [10] | Binder
73.6 | 92.5 | 0.08 | 0.22 | 298 |  |  |  |  |  | 215A8F2 fully human TIM-3 antibody (human IgG4, kappa) (antibody, V domains shown) VH: QVQLQQWGAGLLKPSETLSLTCTVYGGSFSGYYWNWIRQPPGKGLEWLGEINHSGSTNYNPSLKRRVTISVDTSKNQFSLKLSSVTAADTAVYYCARVYYYGPFDFWGQGTLVTVSS VL: not shown
 |  |  |  |  | 0.63 | 0.12 | 2.93 | 0.64 | 0.16 | 18D2H2 (TIM-3 antibody purified from hybridoma, chimeric antibody of Example 2) (antibody, V domains shown, From hybridoma of Harbour H2L2 transgenic mice: human variable regions, rat constant regions) VH: EVQLVESGGDLVQPGGSLRLSCAASGFTFSTYWMTWVRQAPGRGLEWVANIKQDGSAKYYVDSVKGRFTLSRDDAKNSLYLQMNSLRAEDTAVYYCARGSNWFDYWGQGTLVTVSS VL: ETVMTQSPATLSVSPGERATLSCRANQNVYSNLAWYQQKPGQAPRLLIYDASTRATGFPARFSGSGSGTEFTLTISSLQSEDFAVYYCQQYNNWPLTFGGGTKVEIK
 |  |  |  |  | 0.68 | 0.19 | 3.26 | 0.67 | 0.63 | 57F4E5 (TIM-3 antibody purified from hybridoma, chimeric antibody of Example 2) (antibody, V domains shown, From hybridoma of Harbour H2L2 transgenic mice: human variable regions, rat constant regions) VH: EVQLVESGGGLVQPGGSLRLSCAASGFTFSSYWMSWVRQAPGKGLEWVANIKQDGSEKYYVDSVKGRFTISRDSAKNSLYLQMNSLRAEDTAMYFCARDSNFFDYWGQGTLVTVSS VL: ETVMTQSPATLSVSPGERATLSCRASQSVSSNLAWYQRKPGQAPRLLIYFSSTRATGIPARFSGSGSGTEFTLTISSLQSEDFAVYYCQQYNNWPLTFGGGTKVEIK
 |  |  |  |  | 0.64 | 0.14 | 3.17 | 0.67 | 0.28 | 215A8F2 (TIM-3 antibody purified from hybridoma, chimeric antibody of Example 2) (antibody, V domains shown, From hybridoma of Harbour H2L2 transgenic mice: human variable regions, rat constant regions) VH: QVQLQQWGAGLLKPSETLSLTCTVYGGSFSGYYWNWIRQPPGKGLEWLGEINHSGSTNYNPSLKRRVTISVDTSKNQFSLKLSSVTAADTAVYYCARVYYYGPFDFWGQGTLVTVSS VL: not shown
